Measured values: US20210228629A1

Assays:
[1] = molecular target: BCMA expressed on K562 Very High-BCMA cells (UniProt Q02223); test: cell-based or functional assay
BCMA protein = BCMA protein (UniProt Q02223); test: cell-based or functional assay

CD107a+ cells (%), degranulation after 18 hours [1]: 3.82% | CD107a+ cells (%), degranulation after 18 hours (BCMA protein): 22.2%
B1: anti-BCMA CAR (co-stimulatory domain not specified for the experiment) (protein, part only; not given: CAR hinge, transmembrane, signaling domains, part only)
chain, part: DIVLTQSPPSLAMSLGKRATISCRASESVTILGSHLIHWYQQKPGQPPTLLIQLASNVQTGVPARFSGSGSRTDFTLTIDPVEEDDVAVYYCLQSRTIPRTFGGGTKLEIKGSTSGSGKPGSGEGSTKGQIQLVQSGPELKKPGETVKISCKASGYTFTDYSINWVKRAPGKGLKWMGWINTETREPAYAYDFRGRFAFSLETSASTAYLQINNLKYEDTATYFCALDYSYAMDYWGQGTSVTVSS
